# Data from paper PMC3418449.
# Where two headings read alike, the source gives them in different places.
# T1: GRK1 truncated at residue 535 (bovine, UniProt P28327 1-535)
# T1 sequence: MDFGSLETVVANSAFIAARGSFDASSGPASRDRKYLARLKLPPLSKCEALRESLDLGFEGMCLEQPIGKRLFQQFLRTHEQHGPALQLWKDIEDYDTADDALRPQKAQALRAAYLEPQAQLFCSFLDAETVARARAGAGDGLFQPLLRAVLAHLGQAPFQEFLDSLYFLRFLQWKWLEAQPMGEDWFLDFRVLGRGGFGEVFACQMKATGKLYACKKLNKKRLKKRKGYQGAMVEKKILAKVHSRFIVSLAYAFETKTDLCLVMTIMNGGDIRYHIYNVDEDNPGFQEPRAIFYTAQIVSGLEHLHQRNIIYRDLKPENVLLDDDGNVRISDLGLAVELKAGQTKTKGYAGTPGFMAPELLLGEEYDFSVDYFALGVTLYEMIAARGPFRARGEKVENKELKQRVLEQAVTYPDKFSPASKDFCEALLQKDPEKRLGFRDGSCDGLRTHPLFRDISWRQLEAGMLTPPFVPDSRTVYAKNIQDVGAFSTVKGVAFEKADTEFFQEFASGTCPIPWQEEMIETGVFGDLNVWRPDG
# Assays:
# [1] = target: T2, GRK2 (S670A), flow cytometry and crystallography (bovine, UniProt P21146 1-689, S670A); assay: competition
# T2 sequence (P21146 whole entry S670A): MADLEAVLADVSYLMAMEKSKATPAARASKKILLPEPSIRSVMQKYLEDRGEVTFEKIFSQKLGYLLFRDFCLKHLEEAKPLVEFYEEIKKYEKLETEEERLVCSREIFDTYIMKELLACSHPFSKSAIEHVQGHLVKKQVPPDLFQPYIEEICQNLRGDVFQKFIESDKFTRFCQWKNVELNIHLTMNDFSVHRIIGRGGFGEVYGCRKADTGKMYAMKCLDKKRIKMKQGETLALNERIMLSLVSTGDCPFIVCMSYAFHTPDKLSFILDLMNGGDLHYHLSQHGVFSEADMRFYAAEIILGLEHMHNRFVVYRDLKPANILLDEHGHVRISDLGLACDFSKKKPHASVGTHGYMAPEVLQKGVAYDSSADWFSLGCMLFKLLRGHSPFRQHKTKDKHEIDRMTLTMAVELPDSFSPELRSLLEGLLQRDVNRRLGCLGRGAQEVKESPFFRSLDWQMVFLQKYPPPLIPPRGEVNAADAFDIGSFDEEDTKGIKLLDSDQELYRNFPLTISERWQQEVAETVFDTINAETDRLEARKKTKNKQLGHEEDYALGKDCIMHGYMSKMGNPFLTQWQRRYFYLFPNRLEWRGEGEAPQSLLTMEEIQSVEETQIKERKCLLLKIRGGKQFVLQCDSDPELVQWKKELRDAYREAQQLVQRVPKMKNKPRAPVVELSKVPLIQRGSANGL
# [2] = target: T2, GRK2 (S670A), flow cytometry and …; assay: competition; remark: listed apart in the source
# [3] = target: T2, GRK2 (S670A), flow cytometry and …; assay: competition; remark: listed apart in the source
# [4] = target: GRK2-H280A, flow cytometry (UniProt P21146 1-689, H280A); assay: flow cytometry bead binding
# Sequence of GRK2-H280A, flow cytometry (P21146 whole entry H280A): as the sequence (P21146 whole entry S670A) above, with H280A, A670S counted along it
# [5] = target: GRK2-D335A, flow cytometry (UniProt P21146 1-689, D335A); assay: flow cytometry bead binding
# Sequence of GRK2-D335A, flow cytometry (P21146 whole entry D335A): as the sequence (P21146 whole entry S670A) above, with D335A, A670S counted along it
# [6] = target: T2, GRK2 (S670A), flow cytometry and …; assay: flow cytometry bead binding
# [7] = target: GRK2-FG-6A, flow cytometry (UniProt P21146 1-689, R392A;H394A;K395A;K397A;K399A;H400A); assay: competition
# Sequence of GRK2-FG-6A, flow cytometry (P21146 whole entry R392A/H394A/K395A/K397A/K399A/H400A): as the sequence (P21146 whole entry S670A) above, with R392A, H394A, K395A, K397A, K399A, H400A, A670S counted along it
# [8] = target: T2, GRK2 (S670A), flow cytometry and …; assay: competition; remark: listed apart in the source
# [9] = target: GRK6 palmitoylation-deficient (human, UniProt P43250 1-576, C561S;C562S;C565S); assay: competition
# Sequence of GRK6 palmitoylation-deficient (P43250 whole entry C561S/C562S/C565S, the tested form may be a part): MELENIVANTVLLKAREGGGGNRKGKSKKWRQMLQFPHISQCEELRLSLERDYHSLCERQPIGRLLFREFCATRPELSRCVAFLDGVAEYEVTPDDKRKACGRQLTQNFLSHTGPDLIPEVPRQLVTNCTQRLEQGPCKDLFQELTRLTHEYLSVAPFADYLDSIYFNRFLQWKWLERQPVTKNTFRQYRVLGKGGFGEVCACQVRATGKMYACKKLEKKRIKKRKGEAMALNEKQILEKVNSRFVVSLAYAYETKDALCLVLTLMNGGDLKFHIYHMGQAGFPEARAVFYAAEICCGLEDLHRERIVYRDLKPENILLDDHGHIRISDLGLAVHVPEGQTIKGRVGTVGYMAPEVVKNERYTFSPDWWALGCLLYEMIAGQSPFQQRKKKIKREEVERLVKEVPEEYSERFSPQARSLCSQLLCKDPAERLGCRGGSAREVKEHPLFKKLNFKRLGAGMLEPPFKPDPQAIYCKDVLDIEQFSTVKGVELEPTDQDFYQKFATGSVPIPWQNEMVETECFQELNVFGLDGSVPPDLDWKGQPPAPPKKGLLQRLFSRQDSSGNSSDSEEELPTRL
# [10] = target: T1, GRK1 truncated at residue 535; assay: competition
# [11] = target: T2, GRK2 (S670A), flow cytometry and …; assay: flow cytometry bead binding; remark: listed apart in the source
# [12] = target: T2, GRK2 (S670A), flow cytometry and …; assay: flow cytometry bead binding; remark: listed apart in the source
binder,measurement,setting,value
GGCAGACCAUCCGGGAGAGAAACUUGCC (structured_RNA) [C13.28A51C],binding result,[1],no binding
GGCAGACCAUACGGGAGAGAAACUUGCC (ssRNA) [C13.28],IC50,[2],0.44 ± 0.19 nM
same,IC50,[3],1.5 ± 0.1 nM
same,binding result,[4],binds
same,binding result,[5],binds
same,Kd,[6],1.2 ± 0.6 nM
same,IC50,[7],510 ± 170 nM
same,IC50,[8],3.3 ± 0.3 nM
same,IC50,[9],210 ± 10 nM
same,IC50,[10],590 ± 160 nM
same,Kd,[11],3.8 ± 1.2 nM
GGGCAGACCAUACGGGAGAGAAACUUGCC (structured_RNA) [C13.29],IC50,[3],0.91 ± 0.07 nM
AGACCAUACGGGAGAGAAACUU (structured_RNA) [C13.22],IC50,[3],46 ± 9 nM
GGCGACCAUACGGGAGAGAAACUGCC (structured_RNA) [C13.26],IC50,[3],0.9 ± 0.03 nM
GGGUAGCACAGACCAUACGGGAGAGAAACUUGUGCAACCC (structured_RNA) [C13.40],IC50,[3],1.3 ± 0.1 nM
CCAUACGGGAGAGAAACU (ssRNA) [C13.18],IC50,[2],100 ± 41 nM
same,Kd,[12],35 ± 5 nM
